Results on 3 sequences are retold here after patent US20090054250.

Where two headings read alike, the source gives them in different places.

The test system of data set [1] is IgE immunoglobulin, P01854-1. Particulars: saturating IgE.
Data set [2] deals with IgE immunoglobulin, P01854-1. The following applies: n at position 18 is 2-aminopurine replacing C [18 (2-aminopurine replacing C)]; PAGE purified, saturating IgE; affinity stated comparable to unmodified aptamer; screening buffer 20 mM Tris pH 7.1, 140 mM NaCl, 5 mM KCl, 10 mM CaCl2, 10 mM ….

Sequence of IgE immunoglobulin, P01854-1 (P01854 other isoform, or with tags, fused parts or gaps): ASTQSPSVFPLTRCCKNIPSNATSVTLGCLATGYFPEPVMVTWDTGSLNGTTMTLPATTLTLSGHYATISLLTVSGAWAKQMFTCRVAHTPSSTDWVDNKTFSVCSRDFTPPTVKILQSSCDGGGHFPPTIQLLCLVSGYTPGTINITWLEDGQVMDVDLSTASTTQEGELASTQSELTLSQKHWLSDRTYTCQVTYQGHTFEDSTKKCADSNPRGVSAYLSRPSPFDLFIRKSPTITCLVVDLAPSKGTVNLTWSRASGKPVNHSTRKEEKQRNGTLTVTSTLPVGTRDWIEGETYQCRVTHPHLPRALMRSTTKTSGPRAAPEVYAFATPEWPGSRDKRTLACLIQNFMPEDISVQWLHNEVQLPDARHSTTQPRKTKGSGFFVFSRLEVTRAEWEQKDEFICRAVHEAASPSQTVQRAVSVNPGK

As for “GGGGCACGTTTATCCGTCCCTCCTAGTGGCGTGCCCC [IgE aptamer 3MI-18]”, the binding signal (fold fluorescence increase) in data set [1] (n at position 18 is 3-methylisoxanthopterin replacing C [18 (3-methylisoxanthopterin replacing C)]) is 1.5.
“GGGGCACGTTTATCCGTCCCTCCTAGTGGCGTGCCCC [IgE aptamer 6MAP-18]” registered a binding signal (fold fluorescence increase) in data set [1] (n at position 18 is 6MAP replacing C [18 (6MAP replacing C)]) of 1.9.
“GGGGCACGTTTATCCGTCCCTCCTAGTGGCGTGCCCC [IgE aptamer 2AP-18]” returned a binding signal (fold fluorescence increase) in data set [2] of 5.6.
